7 sequences from the supplement of paper PMC11316812 can be followed below.

In one data set the test system is MCF7. As to the kind of experiment: percentage of EdU-negative (G0-arrested) nuclei per well, 72 h; higher = more G0 arrest. Particulars: reference: sequence is the full UniProt precursor, the tested protein was the secreted form or ectodomain.
The subject of a further data set is hTERT-HMEC. The data set is described as above. Particulars: reference: sequence is the full UniProt precursor, the tested protein was the secreted form or ectodomain.
Setting [1] is: protein concentration 0.0225 µM.
Setting [2] is: protein concentration 0.0165525 µM.
Setting [3] is: protein concentration 0.165525 µM.
[4] abbreviates: protein concentration 0.0257143 µM.
Setting [5] is: protein concentration 0.257143 µM.
[6] abbreviates: protein concentration 0.01575 µM.
[7] abbreviates: protein concentration 0.1575 µM.
[8] abbreviates: protein concentration 0.01025 µM.
Setting [9] is: protein concentration 0.1025 µM.
Setting [10] is: protein concentration 0.03125 µM.
[11] abbreviates: protein concentration 0.3125 µM.

± gives the standard deviation of the averaged measurements.
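Further: secreted proteins added to cultured cells, EdU pulse at the end, nuclei found by Hoechst imaging, EdU status from nuclear versus surrounding ring intensity ratio, PBS as neutral control.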

Turning to “MDPKGLLSLTFVLFLSLAFGASYGTGGRMMNCPKILRQLGSKVLLPLTYERINKSMNKSIHIVVTMAKSLENSVENKIVSLDPSEAGPPRYLGDRYKFYLENLTLGIRESRKEDEGWYLMTLEKNVSVQRFCLQLRLYEQVSTPEIKVLNKTQENGTCTLILGCTVEKGDHVAYSWSEKAGTHPLNPANSSHLLSLTLGPQHADNIYICTVSNPISNNSQTFSPWPGCRTDPSETKPWAVYAGLLGGVIMILIMVVILQLRRRGKTNHYQTTVEKKSLTIYAQVQKPGPLQKKLDSFPAQDPCTTIYVAATEPVPESVQETNSITVYASVTLPES”, the “percentage of EdU-negative” value with MCF7 (setting [1]) came to 24.3 ± 0.12%; in the data set with MCF7 (protein concentration 0.225 µM), 23.1 ± 0.27%; in the data set on hTERT-HMEC (setting [1]), 5.0759 ± 0.002%; in the data set with hTERT-HMEC (protein concentration 0.225 µM), 5.04 ± 0.53%.

As to “MTMETQMSQNVCPRNLWLLQPLTVLLLLASADSQAAAPPKAVLKLEPPWINVLQEDSVTLTCQGARSPESDSIQWFHNGNLIPTHTQPSYRFKANNNDSGEYTCQTGQTSLSDPVHLTVLSEWLVLQTPHLEFQEGETIMLRCHSWKDKPLVKVTFFQNGKSQKFSHLDPTFSIPQANHSHSGDYHCTGNIGYTLFSSKPVTITVQVPSMGSSSPMGIIVAVVIATAVAAIVAAVVALIYCRKKRISANSTDPVKAAQFEPPGRQMIAIRKRQLEETNNDYETADGGYMTLNPRAPTDDDKNIYLTLPPNDHVNSNN”, the “percentage of EdU-negative” value with MCF7 (setting [2]) is 26.5 ± 1.3%; in the data set with MCF7 (setting [3]) it was 25.5 ± 0.26%; in the data set with hTERT-HMEC (setting [2]), 4.6 ± 0.053%; in the data set with hTERT-HMEC (setting [3]), 5.2 ± 0.11%.

On to “MALPRCTWPNYVWRAVMACLVHRGLGAPLTLCMLGCLLQAGHVLSQKLDDVDPLVATNFGKIRGIKKELNNEILGPVIQFLGVPYAAPPTGERRFQPPEPPSPWSDIRNATQFAPVCPQNIIDGRLPEVMLPVWFTNNLDVVSSYVQDQSEDCLYLNIYVPTEDVKRISKECARKPGKKICRKGGPLTKKQTDDLGDNDGAEDEDIRDSGGPKPVMVYIHGGSYMEGTGNLYDGSVLASYGNVIVITVNYRLGVLGFLSTGDQAAKGNYGLLDLIQALRWTSENIGFFGGDPLRITVFGSGAGGSCVNLLTLSHYSEGNRWSNSTKGLFQRAIAQSGTALSSWAVSFQPAKYARMLATKVGCNVSDTVELVECLQKKPYKELVDQDIQPARYHIAFGPVIDGDVIPDDPQILMEQGEFLNYDIMLGVNQGEGLKFVENIVDSDDGISASDFDFAVSNFVDNLYGYPEGKDVLRETIKFMYTDWADRHNPETRRKTLLALFTDHQWVAPAVATADLHSNFGSPTYFYAFYHHCQTDQVPAWADAAHGDEVPYVLGIPMIGPTELFPCNFSKNDVMLSAVVMTYWTNFAKTGDPNQPVPQDTKFIHTKPNRFEEVAWTRYSQKDQLYLHIGLKPRVKEHYRANKVNLWLELVPHLHNLNDISQYTSTTTKVPSTDITFRPTRKNSVPVTSAFPTAKQDDPKQQPSPFSVDQRDYSTELSVTIAVGASLLFLNILAFAALYYKKDKRRHDVHRRCSPQRTTTNDLTHAQEEEIMSLQMKHTDLDHECESIHPHEVVLRTACPPDYTLAMRRSPDDVPLMTPNTITMIPNTIPGIQPLHTFNTFTGGQNNTLPHPHPHPHSHSTTRV [Q8N2Q7]”, for which the “percentage of EdU-negative” value in the data set with MCF7 (setting [4]) was determined as 23.1 ± 1.3%; in the data set on MCF7 (setting [5]), 22.8 ± 3.5%; in the data set with hTERT-HMEC (setting [4]), 4.75 ± 0.6%; in the data set on hTERT-HMEC (setting [5]), 5.43 ± 0.056%.

Consider “MEACCLLQLPQRLLLLGAAALTATALETADLAELCGQTWQGDGLLLRSHAASRRFYFVAPDTDCGLWVQAAAPGDRIRFQFRFFLVYSLTPAPPALNTSSPAPADPCAPGSYLQFYEGPPGAPRPLGSPLCGLNIPVPVASSGPFLGLRLVTRGRQPRVDFVGEVTSFRLGPCGAYFRCQNGRCIPSSLVCDPWGMDNCGDGSDQGSWSPADCRGPSPVPSQTGSTDAHTSRSLTPSPALGSAGSLWIAAERSSPAGRDPTRQDAALEGSTE [Q5SZI1]”, for which the “percentage of EdU-negative” value in the data set on MCF7 (setting [1]) amounted to 24.6 ± 1.8%; in the data set with MCF7 (protein concentration 0.225 µM), 25.3 ± 0.88%; with hTERT-HMEC (setting [1]), 5.13 ± 0.83%; in the data set with hTERT-HMEC (protein concentration 0.225 µM), 5.979 ± 0.048%.

As for “MRTVVLTMKASVIEMFLVLLVTGVHSNKETAKKIKRPKFTVPQINCDVKAGKIIDPEFIVKCPAGCQDPKYHVYGTDVYASYSSVCGAAVHSGVLDNSGGKILVRKVAGQSGYKGSYSNGVQSLSLPRWRESFIVLESKPKKGVTYPSALTYSSSKSPAAQAGETTKAYQRPPIPGTTAQPVTLMQLLAVTVAVATPTTLPRPSPSAASTTSIPRPQSVGHRSQEMDLWSTATYTSSQNRPRADPGIQRQDPSGAAFQKPVGADVSLGLVPKEELSTQSLEPVSLGDPNCKIDLSFLIDGSTSIGKRRFRIQKQLLADVAQALDIGPAGPLMGVVQYGDNPATHFNLKTHTNSRDLKTAIEKITQRGGLSNVGRAISFVTKNFFSKANGNRSGAPNVVVVMVDGWPTDKVEEASRLARESGINIFFITIEGAAENEKQYVVEPNFANKAVCRTNGFYSLHVQSWFGLHKTLQPLVKRVCDTDRLACSKTCLNSADIGFVIDGSSSVGTGNFRTVLQFVTNLTKEFEISDTDTRIGAVQYTYEQRLEFGFDKYSSKPDILNAIKRVGYWSGGTSTGAAINFALEQLFKKSKPNKRKLMILITDGRSYDDVRIPAMAAHLKGVITYAIGVAWAAQEELEVIATHPARDHSFFVDEFDNLHQYVPRIIQNICTEFNSQPRN [Q6UXI7]”, the “percentage of EdU-negative” value with MCF7 (setting [6]) worked out at 27 ± 0.45%; in the data set on MCF7 (setting [7]), 23.4 ± 0.87%; in the data set with hTERT-HMEC (setting [6]), 5.15 ± 0.69%; with hTERT-HMEC (setting [7]), 6.71 ± 1.1%.

As to “MTVFLSFAFLAAILTHIGCSNQRRSPENSGRRYNRIQHGQCAYTFILPEHDGNCRESTTDQYNTNALQRDAPHVEPDFSSQKLQHLEHVMENYTQWLQKLENYIVENMKSEMAQIQQNAVQNHTATMLEIGTSLLSQTAEQTRKLTDVETQVLNQTSRLEIQLLENSLSTYKLEKQLLQQTNEILKIHEKNSLLEHKILEMEGKHKEELDTLKEEKENLQGLVTRQTYIIQELEKQLNRATTNNSVLQKQQLELMDTVHNLVNLCTKEGVLLKGGKREEEKPFRDCADVYQAGFNKSGIYTIYINNMPEPKKVFCNMDVNGGGWTVIQHREDGSLDFQRGWKEYKMGFGNPSGEYWLGNEFIFAITSQRQYMLRIELMDWEGNRAYSQYDRFHIGNEKQNYRLYLKGHTGTAGKQSSLILHGADFSTKDADNDNCMCKCALMLTGGWWFDACGPSNLNGMFYTAGQNHGKLNGIKWHYFKGPSYSLRSTTMMIRPLDF”, the “percentage of EdU-negative” value in the data set with MCF7 (setting [8]) came out at 25.2 ± 0.66%; with MCF7 (setting [9]), 26.4 ± 0.81%; in the data set on hTERT-HMEC (setting [8]), 4.915 ± 0.017%; in the data set on hTERT-HMEC (setting [9]), 8.6 ± 2%.

For “MFPFYSCWRTGLLLLLLAVAVRESWQTEEKTCDLVGEKGKESEKELALVKRLKPLFNKSFESTVGQGSDTYIYIFRVCREAGNHTSGAGLVQINKSNGKETVVGRLNETHIFNGSNWIMLIYKGGDEYDNHCGKEQRRAVVMISCNRHTLADNFNPVSEERGKVQDCFYLFEMDSSLACSPEISHLSVGSILLVTFASLVAVYVVGGFLYQRLVVGAKGMEQFPHLAFWQDLGNLVADGCDFVCRSKPRNVPAAYRGVGDDQLGEESEERDDHLLPM”, the “percentage of EdU-negative” value in the data set on MCF7 (setting [10]) turned out to be 25.21 ± 0.13%; in the data set on MCF7 (setting [11]) it was 24.8 ± 1.1%; in the data set on hTERT-HMEC (setting [10]), 5.26 ± 0.29%; in the data set on hTERT-HMEC (setting [11]), 5.43 ± 0.57%.
